Positions count from the first letter of the chain named. Names may count otherwise.
B1: T8311-U14T2.G25R-1.uIgG1 (bispecific antibody)
heavy: not shown
light 1: SYELTQPPSVSVSPGQTASITCSGSELPKRYAYWYQQKPGQSIVRVIYKDSERPSGISERFSGSSSGNTATLTISGTQAMDEADYYCSSTYGDRKLPIFGGGTKLTVLGQPKAAPSVTLFPPSSEELQANKATLVCLISDFYPGAVTVAWKADSSPVKAGVETTTPSKQSNNKYAASSYLSLTPEQWKSHKSYSCQVTHEGSTVEKTVAPTECS
light 2: SYVLTQPPSVSVAPGQTARMTCGGDNIGIKIVHWYQQKAGQAPVLVVYDDNDRPSGIPDRFSGSNSGNTATLTISRVAAGDEADYYCQVWDRRSDHVVFGGGTKLTVLPDIQNPDPAVYQLRDSKSSDKSVCLFTDFDSQTQVSQSKDSDVYITDKCVLDMRSMDFKSNSAVAWSQKSDFACANAFQNSIIPEDTFFPSPESS
notes: Symmetric 2+2 format G25R, human IgG1 Fc; PD-L1 x 4-1BB; also called T8311-1
B2: T8311-U14T2.G25R-54.uIgG1 (bispecific antibody)
heavy: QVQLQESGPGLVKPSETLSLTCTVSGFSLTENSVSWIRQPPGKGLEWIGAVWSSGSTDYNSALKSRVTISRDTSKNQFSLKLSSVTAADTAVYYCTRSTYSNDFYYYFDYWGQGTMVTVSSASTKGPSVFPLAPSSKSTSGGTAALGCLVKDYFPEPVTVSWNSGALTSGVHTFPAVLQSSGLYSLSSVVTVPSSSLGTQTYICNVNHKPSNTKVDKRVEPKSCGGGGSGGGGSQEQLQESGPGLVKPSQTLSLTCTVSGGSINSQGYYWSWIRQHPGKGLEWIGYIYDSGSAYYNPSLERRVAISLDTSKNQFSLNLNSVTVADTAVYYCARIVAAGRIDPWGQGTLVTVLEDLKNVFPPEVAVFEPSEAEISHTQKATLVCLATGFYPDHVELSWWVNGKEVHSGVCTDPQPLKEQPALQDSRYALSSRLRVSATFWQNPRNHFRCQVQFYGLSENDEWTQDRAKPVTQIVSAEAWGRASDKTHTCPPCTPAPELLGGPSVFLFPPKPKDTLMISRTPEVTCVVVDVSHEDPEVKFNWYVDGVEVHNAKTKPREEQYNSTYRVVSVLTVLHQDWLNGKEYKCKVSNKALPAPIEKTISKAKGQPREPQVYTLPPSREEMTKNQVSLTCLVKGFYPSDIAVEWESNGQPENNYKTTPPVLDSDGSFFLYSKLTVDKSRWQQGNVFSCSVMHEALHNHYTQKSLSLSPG
light 1: B1 light 1
light 2: SYVLTQPPSVSVAPGQTARMTCGGDNIGIKIVHWYQQKAGQAPVLVVYDDNDRPSGIPDRFSGSNSGNTATLTISRVAAGDEADYYCQVWDRRSDHVVFGGGTKLTVLPDIQNPDCAVYQLRDSKSSDKSVCLFTDFDSQTQVSQSKDSDVYITDKCVLDMRSMDFKSNSAVAWSQKSDFACANAFQNSIICEDTFFPS
notes: also called T8311-54
B3: T8311-U14T2.G25R-47.uIgG1 (bispecific antibody)
heavy: not shown
light 1: B1 light 1
light 2: B2 light 2 with C116P, S144C, N188C, C192P
notes: also called T8311-47
B4: T8311-U14T2.G25R-57.uIgG1 (bispecific antibody)
heavy: not shown
light 1: B1 light 1
light 2: B2 light 2 with C192P, D194C
notes: also called T8311-57; design 57
B5: T8311-U14T2.G25R-56.uIgG1 (bispecific antibody)
heavy: not shown
light 1: B1 light 1
light 2: B2 light 2 with C116P, T141C
notes: also called T8311-56
B6: T8311-U14T2.G25R-49.uIgG1 (bispecific antibody)
heavy: not shown
light 1: B1 light 1
light 2: B2 light 2 with C116P, K147C, N188C, C192P
notes: also called T8311-49
B7: T8311-U14T2.G25R-52.uIgG1 (bispecific antibody)
heavy: not shown
light 1: B1 light 1
light 2: B2 light 2 with C116P, S144C, S189C, C192P
notes: also called T8311-52
B8: T8311-U14T2.G25R-50.uIgG1 (bispecific antibody)
heavy: not shown
light 1: B1 light 1
light 2: B2 light 2 with C116P, Q142C, S189C, C192P
notes: also called T8311-50
B9: T8311-U14T2.G25R-53.uIgG1 (bispecific antibody)
heavy: not shown
light 1: B1 light 1
light 2: B2 light 2 with C116P, Q142C, I190C, C192P
notes: also called T8311-53
B10: T8311-U14T2.G25R-61.uIgG1 (bispecific antibody)
heavy: not shown
light 1: B1 light 1
light 2: B2 light 2 with C116P, C192P, P198C
notes: also called T8311-61; Design-61
B11: T8311-U14T2.G25R-48.uIgG1 (bispecific antibody)
heavy: not shown
light 1: B1 light 1
light 2: B2 light 2 with C116P, S146C, N188C, C192P
notes: also called T8311-48
B12: T8311-U14T2.G25R-59.uIgG1 (bispecific antibody)
heavy: not shown
light 1: B1 light 1
light 2: B2 light 2 with C116P, A117C, C192P, F196C
notes: also called T8311-59
B13: T8311-U14T2.G25R-58.uIgG1 (bispecific antibody)
heavy: not shown
light 1: B1 light 1
light 2: B2 light 2 with C192P, T195C
notes: also called T8311-58
B14: T8311-U14T2.G25R-51.uIgG1 (bispecific antibody)
heavy: not shown
light 1: B1 light 1
light 2: B2 light 2 with C116P, V143C, S189C, C192P
notes: also called T8311-51

Molecular target: T1, Human PD-L1 (human, UniProt Q9NZQ7 19-290)
T1 construct: whole, on cells; also called target-A
T1 sequence (Q9NZQ7 19-290): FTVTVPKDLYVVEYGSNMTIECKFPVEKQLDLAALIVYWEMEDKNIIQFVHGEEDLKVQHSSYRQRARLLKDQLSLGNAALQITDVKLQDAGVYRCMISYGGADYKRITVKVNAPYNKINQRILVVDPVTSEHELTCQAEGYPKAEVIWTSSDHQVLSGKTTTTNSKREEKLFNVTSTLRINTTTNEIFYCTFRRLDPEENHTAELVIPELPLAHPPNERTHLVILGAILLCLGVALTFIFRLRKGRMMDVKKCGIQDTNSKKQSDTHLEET
Experiment: flow cytometry on CHO-K1 cells expressing human PD-L1
Experimental: Human PD-L1-expressing cells W315-CHOK1.hPro1.C11 (×10^5 cells/well) and 4-1BB-expressing cells WBP342-CHO-K1.hPro1.C1 were incubated with various concentrations of testing antibodies at 4° C. for 1 hour. […] The cells were then washed and resuspended in DPBS with 1% BSA. MFI of the cells was measured by a flow cytometer and analyzed by FlowJo.
As shown in FIG. 7 and Table 7, compared to the reference molecule, the T8311 variants kept the target binding ability very well.

EC50 | Top (MFI) | Binder
0.184 nM | 8330 MFI | B1
0.23 nM | 8120 MFI | B2
0.186 nM | 8110 MFI | B3
0.177 nM | 8150 MFI | B4
0.192 nM | 8240 MFI | B5
0.153 nM | 8130 MFI | B6
0.187 nM | 8060 MFI | B7
0.256 nM | 8130 MFI | B8
0.22 nM | 8150 MFI | B9
0.179 nM | 7880 MFI | B10
0.205 nM | 8120 MFI | B11
0.215 nM | 7860 MFI | B12
0.19 nM | 7990 MFI | B13
0.213 nM | 8120 MFI | B14

From patent publication US20240317872A1 (WUXI BIOLOGICS IRELAND, published 2024)
